Measured values reported in article PMC7677223 (Nature microbiology, 2020).

B1: VZV small capsid protein (SCP) pORF23 (natural protein)
chain: MTQPASSRVVFDPSNPTTFSVEAIAAYTPVALIRLLNASGPLQPGHRVDIADARSIYTVGAAASAARARANHNANTIRRTAMFAETDPMTWLRPTVGLKRTFNPRIIRPQPPNPSMSLGISGPTILPQKTQSADQSALQQPAALAFSGSSPQHPPPQTTSASVGQQQHVVSGSSGQQPQQGAQSSTVQPTTGSPPAAQGVPQSTPPPTQNTPQGGKGQTLSHTGQSGNASRSRRV

Experiments:
[1] = target: VZV capsid (MCP pORF40, SCP pORF23, Tri1 pORF20, Tri2 pORF41) (varicella-zoster virus (P-Oka strain)) (UniProt P09245); test: cryo-EM structure
VZV capsid (MCP pORF40, SCP pORF23, Tri1 pORF20, Tri2 pORF41) (varicella-zoster virus (P-Oka strain)), sequence (P09245 whole entry, looked up): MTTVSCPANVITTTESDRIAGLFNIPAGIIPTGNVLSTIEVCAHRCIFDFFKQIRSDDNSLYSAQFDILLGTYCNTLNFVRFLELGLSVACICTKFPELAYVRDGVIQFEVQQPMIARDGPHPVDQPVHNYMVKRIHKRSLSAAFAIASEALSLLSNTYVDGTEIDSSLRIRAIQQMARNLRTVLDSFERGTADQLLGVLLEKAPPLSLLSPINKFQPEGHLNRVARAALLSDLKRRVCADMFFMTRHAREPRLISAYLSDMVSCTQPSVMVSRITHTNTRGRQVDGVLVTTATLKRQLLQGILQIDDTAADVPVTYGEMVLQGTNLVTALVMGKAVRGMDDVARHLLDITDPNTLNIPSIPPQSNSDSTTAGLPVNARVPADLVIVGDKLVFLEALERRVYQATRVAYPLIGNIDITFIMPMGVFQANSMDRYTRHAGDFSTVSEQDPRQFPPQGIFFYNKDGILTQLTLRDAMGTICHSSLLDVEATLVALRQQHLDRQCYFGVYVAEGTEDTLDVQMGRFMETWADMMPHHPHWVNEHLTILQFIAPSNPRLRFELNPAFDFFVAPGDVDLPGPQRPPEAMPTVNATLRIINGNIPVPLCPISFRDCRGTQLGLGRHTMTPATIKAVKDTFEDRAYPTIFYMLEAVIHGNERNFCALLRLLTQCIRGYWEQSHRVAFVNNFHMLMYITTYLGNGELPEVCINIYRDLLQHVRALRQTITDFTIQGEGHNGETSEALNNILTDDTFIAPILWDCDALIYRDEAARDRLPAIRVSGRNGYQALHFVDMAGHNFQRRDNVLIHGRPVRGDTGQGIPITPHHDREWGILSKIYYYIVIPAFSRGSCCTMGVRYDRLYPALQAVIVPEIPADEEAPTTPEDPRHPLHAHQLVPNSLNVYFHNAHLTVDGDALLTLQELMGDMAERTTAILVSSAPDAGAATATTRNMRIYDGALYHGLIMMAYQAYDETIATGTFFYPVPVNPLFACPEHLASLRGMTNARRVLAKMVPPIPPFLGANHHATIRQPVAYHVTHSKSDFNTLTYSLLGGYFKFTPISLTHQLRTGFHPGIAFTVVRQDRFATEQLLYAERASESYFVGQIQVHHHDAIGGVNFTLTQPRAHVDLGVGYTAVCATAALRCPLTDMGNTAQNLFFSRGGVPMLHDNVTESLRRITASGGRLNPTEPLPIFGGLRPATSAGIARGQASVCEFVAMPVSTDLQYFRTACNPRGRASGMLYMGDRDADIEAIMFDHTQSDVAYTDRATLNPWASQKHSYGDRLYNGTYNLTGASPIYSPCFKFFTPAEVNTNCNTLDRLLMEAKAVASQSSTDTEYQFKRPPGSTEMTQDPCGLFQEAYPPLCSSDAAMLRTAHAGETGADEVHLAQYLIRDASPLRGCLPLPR

cryo-EM structure = target: the molecule itself; test: cryo-EM structure

Molecule	percent of pentons bound with CATCs [1] [%]	stoichiometry N (cryo-EM structure)
VZV capsid-associated tegument complex (CATC)	50.5	
B1		6
